This note sets out measurements from article PMC3063399 (Cell, 2011).

Where two headings read alike, the source gives them in different places.

For data set [1], the target named is PAN ATPase complex (UniProt Q58576). The data set is described as follows: fluorescence polarisation.
Data set [2] has the same target. The data set is described as follows: fluorescence polarisation. The source holds these as a separate data set.
The target in a further data set is T1, PAN (Methanocaldococcus jannaschii, UniProt Q58576).
T1 sequence (Q58576 1-430): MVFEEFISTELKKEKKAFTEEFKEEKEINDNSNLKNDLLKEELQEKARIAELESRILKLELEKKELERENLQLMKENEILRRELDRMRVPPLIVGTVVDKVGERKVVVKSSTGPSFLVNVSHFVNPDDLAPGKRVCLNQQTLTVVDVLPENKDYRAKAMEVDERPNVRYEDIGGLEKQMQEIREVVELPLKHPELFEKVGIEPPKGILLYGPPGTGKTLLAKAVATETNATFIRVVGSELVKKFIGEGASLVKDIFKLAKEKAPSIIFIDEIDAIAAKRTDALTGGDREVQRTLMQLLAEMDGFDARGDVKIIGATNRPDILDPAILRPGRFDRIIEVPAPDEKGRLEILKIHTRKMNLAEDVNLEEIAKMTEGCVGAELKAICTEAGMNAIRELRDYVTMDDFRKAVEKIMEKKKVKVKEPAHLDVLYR
The data set is described as follows: α-32P-ATP binding, rapid spin gel filtration. For orientation: Size exclusion chromatography separates by hydrodynamic size, large species first.

Substrate in data set [3]: Nc1ncnc2c1ncn2[C@@H]1O[C@H](COP(=O)(O)OP(=O)(O)OP(=O)(O)O)[C@@H](O)[C@H]1O
The data set is described as follows: ATPase, inorganic phosphate release. It is filed as biochemical, Methanocaldococcus jannaschii. The settings on record: 45 °C.

On to “FITC-casein (from UniProt P02666 16-224) (natural protein)”, for which the change in polarization in the data set with PAN ATPase complex [1] is 56 mP; with PAN ATPase complex [2], 7 mP.
On PAN, `Nc1ncnc2c1ncn2[C@@H]1O[C@H](COP(=O)(O)OP(=O)(O)OP(=O)(O)O)[C@@H](O)[C@H]1O` [ATP] came in with a Kd of 13 µM.

B1: PAN (Methanocaldococcus jannaschii DSM 2661) (protein)
chain: MVFEEFISTELKKEKKAFTEEFKEEKEINDNSNLKNDLLKEELQEKARIAELESRILKLELEKKELERENLQLMKENEILRRELDRMRVPPLIVGTVVDKVGERKVVVKSSTGPSFLVNVSHFVNPDDLAPGKRVCLNQQTLTVVDVLPENKDYRAKAMEVDERPNVRYEDIGGLEKQMQEIREVVELPLKHPELFEKVGIEPPKGILLYGPPGTGKTLLAKAVATETNATFIRVVGSELVKKFIGEGASLVKDIFKLAKEKAPSIIFIDEIDAIAAKRTDALTGGDREVQRTLMQLLAEMDGFDARGDVKIIGATNRPDILDPAILRPGRFDRIIEVPAPDEKGRLEILKIHTRKMNLAEDVNLEEIAKMTEGCVGAELKAICTEAGMNAIRELRDYVTMDDFRKAVEKIMEKKKVKVKEPAHLDVLYR
For B1, the Km in data set [3] was found to be 263 ± 18 µM.

By Kd is commonly meant a measure of binding affinity in units of concentration. As usually defined, the Km is the substrate concentration at which the rate is half of its maximum.
